{
  "source": "patent US11285274B2",
  "about": "“Methods for the systemic delivery of therapeutic agents to the pulmonary system using a droplet delivery device” (PNEUMA RESPIRATORY, INC., priority 2016, dated 2022)",
  "key": {"[1]": {"tested_on": "patients with cystic fibrosis", "details": "cited from earlier work"}, "[2]": {"experiment": "Size exclusion chromatography (SEC) stability after aerosol generation with test device", "format": "physicochemical", "details": "for Peak Area %, Peak 1 / Peak Area %, Peak 2 / Peak Area %, Peak 3: Insulin (Humalog Kwikpen 200 U/ml)", "description": "Alternately, to determine the stability of active agent after droplet generation, the generated stream of droplets including the active agent may be collected and […] may be employed to monitor for any changes in large molecule aggregation and protein fragment content. Soluble protein aggregates and protein fragment content may be calculated by comparing respective peak area under the SEC-HPLC curve of dispensed protein solutions with controls (solutions remaining in the device reservoir). Drug solutions for testing include Enbrel, (ENBREL® single-use prefilled syringes in 25 mg (0.51 mL of a 50 mg/mL solution of etanercept), and insulin, (Humalog, 200 units/ml, 3 ml […] is performed with a YarraTM 3 um SEC-2000 LC column 300×7.8 mm, SecurityGuard cartridge kit and SecurityGuard cartridges GFC-2000, 4×3 mm ID. Fifty microliters of Enbrel from the syringe (ENBREL® single-use prefilled syringes in 25 mg/0.51 mL of a 50 mg/mL solution of etanercept) is diluted (4:1) (4 parts, 200 mcl of the mobile phase buffer solution to 1 part, 50 mcl Enbrel from syringe). Fifty microliter of the diluted Enbrel is injected and separation was performed at a flow rate of 1.0 ml/min. The mobile phase buffer system included a PHOS. BUFF. SALINE. […] UV detection is performed at 280 nm. […] Aerosol collection and SEC is performed in a similar fashion as for the Enbrel analysis and aerosol collection. […] Fifty microliters of the collected aerosol spray is injected onto the SEC column for analysis, while 50 mcl of the […] insulin solution is injected onto the SEC column for control samples."}, "[3]": {"experiment": "Gel electrophoresis of active agent after droplet generation", "format": "physicochemical", "description": "To determine the stability of active agent after droplet generation, the generated stream of droplets including the active agent is collected and the molecular weight of the active agent is verified using gel electrophoresis."}, "[4]": {"details": "aerosolized with test device (20 actuations), SEC"}, "[5]": {"details": "Insulin aerosolized with test device"}, "[6]": {"details": "Enbrel aerosolized with test device"}, "[7]": {"details": "Enbrel aerosolized, average of S1 and S2"}, "[8]": {"details": "Enbrel diluted 4:1 (10 mg/ml), control (not aerosolized), SEC, UV 280 nm"}},
  "note": "Several values for one entry are separate records, joined by “and”; a condition that tells them apart may be missing. Equal entries are not always repeated.",
  "data": [
    {"compound": "NC[C@H]1O[C@H](O[C@H]2[C@H](O)[C@@H](O[C@H]3O[C@H](CO)[C@@H](O)[C@H](N)[C@H]3O)[C@H](N)C[C@@H]2N)[C@H](N)C[C@@H]1O", "note": "[tobramycin]", "values": [
      {"measurement": "pulmonary function and kidney side effects", "setting": "[1]; administration by inhalation", "result": "significantly improves pulmonary function without severe side effects to kidney functions"},
      {"measurement": "serum levels and kidney toxicity", "setting": "[1]; intravenous administration", "result": "very high serum levels that are toxic to the kidneys"}
    ]},
    {"compound": "Insulin", "values": [
      {"measurement": "Peak Area %, Peak 1", "setting": "[2]; [4]", "result": "27.881% and 28.721%"},
      {"measurement": "Peak Area %, Peak 2", "setting": "[2]; [4]", "result": "69.780% and 67.807%"},
      {"measurement": "Peak Area %, Peak 3", "setting": "[2]; [4]", "result": "2.184% and 2.797%"},
      {"measurement": "Peak Area %, Peak 1", "setting": "[2]; control (not aerosolized), SEC", "result": 29.926, "unit": "%"},
      {"measurement": "Peak Area %, Peak 2", "setting": "[2]; control (not aerosolized), SEC", "result": 69.630, "unit": "%"},
      {"measurement": "Peak Area %, Peak 3", "setting": "[2]; control (not aerosolized), SEC", "result": 0, "unit": "%"},
      {"measurement": "fraction of the ejected dose forming a fragment which elutes at ~25 minutes", "setting": "[2]; [5]", "result": 2.5, "unit": "%"},
      {"measurement": "fraction of the ejected dose structurally unchanged", "setting": "[2]; [5]", "result": 97.5, "unit": "%"},
      {"measurement": "Peak Area %, Peak 3, Avg.", "setting": "[2]; Insulin aerosolized, average of S1 and S2", "result": 2.4905, "unit": "%"}
    ]},
    {"compound": "adalimumab", "values": [
      {"measurement": "change in electrophoretic mobility (molecular weight) of post-aerosol active agent from control", "setting": "[3]", "result": "negligible change"}
    ]},
    {"compound": "bevacizumab", "values": [
      {"measurement": "change in electrophoretic mobility (molecular weight) of post-aerosol active agent from control", "setting": "[3]", "result": "negligible change"}
    ]},
    {"compound": "etanercept [Enbrel]", "values": [
      {"measurement": "fraction of the dose forming molecular fragments with elution times of 13 and 25 minutes", "setting": "[2]; [6]", "result": 4.6, "unit": "%"},
      {"measurement": "fraction structurally unchanged after delivering an aerosol dose", "setting": "[2]; [6]", "result": 95.4, "unit": "%"},
      {"measurement": "Peak Area %, Peak 4, Avg.", "setting": "[2]; [7]", "result": 0.3545, "unit": "%"},
      {"measurement": "Peak Area %, Peak 5, Avg.", "setting": "[2]; [7]", "result": 4.2755, "unit": "%"},
      {"measurement": "Peak Area %, Peak 4", "setting": "[2]; [8]", "result": 0, "unit": "%"},
      {"measurement": "Peak Area %, Peak 5", "setting": "[2]; [8]", "result": 0, "unit": "%"},
      {"measurement": "change in electrophoretic mobility (molecular weight) of post-aerosol active agent from control", "setting": "[3]", "result": "negligible change"}
    ]}
  ]
}
